The source of these data is a protein production outcome set (Wang et al. 2014).

The series in a line: label from the status in PepcDB records.
“MNRVFKKNSVFAIIFAACSWGGFLDRAYAEACPSEDFSKFLTVFSATPEVQQRFTAVKVQALVLKPAKQTDRFEPQTTDVANASLAYPLMGPIISDKTDGVQIEAVDDRHVRVIDKRAGHSDIKVFNFSRQTCWVLAGMEDWSISEKDLSAAVQPKMNRSESLCFQRGRAYAGLGGVEQYPLTAEFFEAALENYVCAAASGDPQASLNAASLSLSGMAPQLETEKVEALFKAASTTLADGAAGLSSFYCYGNNVAADGPCQHPEQAEKELVRAVSMGSSDATNYLGYTLETGELRTTDLDRAIACYRLAASMGNQTAADNLKRLSKQATDVSTAGHCY”: the protein production result is “failed”.

For the sequence “MNSEENTDSIPIDLILDILSRLPSKSIARCRCVSKLWESMIRQSYFTELFLTRSSSRPHLLIAVEQEGEWKFFSLPQPKNYLGKSSLVVAANLHLKFFEDKRPQHGCSYASSLIYFPNMTIRKKGDDHLGVICNPSTGQYGYVILPPLLDFKSVPYGKFLGFDPIDKQFKVLIPIFDFDKHQTDHHILTLGAETVGWRKIQSPLRYLPHSNGTICINGILYYLAKINYAMDKNVLVCFDVRSENFVFLRLNTYCSSTKLVNYKGKLGMINQEYVDDGGFPLKLSVWVLEDVGKEEWSTYVYTLRDDNKVDQVKYNLSVVGVTASGEIVLVKKTQTLKPFYVLYFNPDKNTLLTVEVKGLHRGLYAVHRIYAFVDHVEDLEFNIMKTTYAAKSKFSQEDRF”, the protein production entry is recorded as “failed”.

On to “MNSEWIWRLRARLGYGVARQLLGWPWLVKQPRAWQWMQGQFSRMANLGHRDAQAFYGHLLLFRGQGFGAREEGLRLLRLAASAGDGKSAYQLGVQALKGDSRQAPDALAASRHWALAAEAGHPLAARKLAELYRDGGPGLAPDSERAEHYAQRASALGLLEHHHHHH”, for which the protein production entry is “failed”.

“MNSIRSSPAIGENRTVYIGSYDGKLYAFNPDGTLKWSYTTGNQITGSATIGADGTICIGSYDRRLYTINPDGTLKWSYTTGNQIFSSAAIGEDGTIYVGSRDNKLYALNPDGTLKWSYTTGNQIFSSAAIGEDLEHHHHHH”: the protein production entry is on record as “failed”.

For the sequence “MNSIVSTVRGILTLSRSETFDSPRDEAKSDLKVLSVAWNQVCSGFIVGTNHGFNVYSCKPMIKKSISRAPHESGFKVAEMLFLSNLFAFVGNGYNNSEYPPNKVFVWDDYRNCCLSELTFKSEVIAVKLAREHVVVVLKQNIYVYTFNNLKVDRVIETLMNPKGLCCVTHVESKAVLACPGFHPGQVQVHDLRWNVIKFIKAHDSAIACMTLTLDGSLLATASTKGTLIRIFNAVDGTLLQEFRRGVERAEIYNVAISSNLKWVAASSEKGTLHVFRLRPDILSFDPASSSSFIRVILPKYLYENERSFAQFSLPASTKFIVGFGSENTVLLVGIDGSFRRCKFDHADGGQMVELEHKYFFSLQETGNTMVGGV”, the protein production result is reported as “failed”.

On to “MNSKENLKIVQLSDLHIKKDFNADRLDKVIQKTNEQNPDFIIFSGDLYDNYSQYNENEAVISKLKSLKAKYGKIAIWGNRDYGGGAVKEYANIMAESDFSLLRNENQVFTLDNGKKILFTGLDDALLGNPQFPSLEHHHHHH”, for which the protein production entry was “not failed”.

Regarding “MNSLSLFSPSFTDSVFDALDRSLGPNFGVFAPIKNASCGMPSVDIRETEKAYVMEVDLPGYSEKDVEISLKDRLMTISSSKKEEKEDKGAEYIIKERSSRHFMRRFTLPEDINSDEVSAKFENGVLVVNIPRKPDTQPKQIEIKTA”, the protein production entry is recorded as “failed”.

On to “MNSMAKKDNLTEELKKHFGFDTFKGNQRAIIENVLAGNDTFVLMPTGGGKSLCYQLPSLMMQGTAIVISPLIALMKNQVDAMRNFSEEDGVAHFINSSLNKSAIDQVKDDIRNGRTKLLYVAPESLTKDENVEFLRQVNISFYAVDEAHCISEWGHDFRPEYRRIRPIINEIGKRPLIALTATATPKVQHDIQKNLGMIDASVFKSSFNRSNLYYEIRPKTANIDREIIKYIKSNEGKSGIIYCLSRKKVEEFADILKANGIKALPYHAGMDSQQRSSNQDAFLMEKADVIVATIAFGMGIDKPDVRYVIHYDIPKSLEGYYQETGRAGRDGGEGQCIAFYAYKDLQKLEKFMQGKPVAEQEIGKQLLLETAAYAETSVCRRKVLLHYFGEEYLEENCGNCDNCLNPKKKVEAKELLSAVLEVVGTLKEKFKAEYIVNMLVGNETSEIQSYKHNELEIFGSGSDEEEKTWNAVIRQALIAGYLAKDIENYGLLKITEKGKEFIKKPVSFKITEDNEFDEEEEEVPVRGGAACAVDPALFSMMKDLRKKLSKRLEVPPFVIFQDPSLEAMATTYPVTLEELQNIPGVGAGKAKRYGKEFIELIKRHVEENEIERPEDLRVRTVANKSKLKVSIIQRIDRKVALDEIAMTNGLEFNELLDEIEAIVYSGTRINIDYFLNDVMDEDHIDDIYEYFKDSETDDLEDAIEELGGDYTEEEIRLVRIKFLSEMAN”, for which the protein production result is recorded as “failed”.

Consider “MNSNRSLLVMGLLLVSFLIFTQWQQDFNPEIQAQKQAQQQSRDVPHATNTANAITEHMTKGKTITVESDVLRLVIDTLGGDVIESDLLAHKASLDSTDPLKLLTTEGLIYTAQSGLVGKNGIDTHIGRAPYQVTQDHFTLAKGQNEIVVPMTFEQDGVMYTKTFTLKRGSYDVAVSFDIQNNSANTIEVQPYGQIKHSLLDSSGNLAMPTYTGGAYSSSETNYKKYSFDEMTKANLNIDTKGGWVALLQHYFVSAWVPNQDASNTLYSRTHNGVATIGYRGPITTVKPNTKTTITSQLWTGPKDQKEMAQAATHLELTVDYGWAWFIAKPLFWLLIFIHSIIGNWGLAIMGVTLVVKSLLYPLTKAQYTSMAKMRMLQPKLQELRERYGDDRQQMSQEMMKLYKQEKVNPMGGCLPLILQMPIFIALYWTFMEAVELRHAPFFGWIQDLSAQDPYYIFPVLMGLSMFLLQKMSPTAVADPTQLKVMTFMPVIFTVFFLWFPSGLVLYWLTSNCITIVQQWLIYRNLEKKGLHTRKK”, for which the protein production result is “failed”.

With “MNSPHMDYALAPRASGPASWLETFLVTALVIGVGLWLAPEDPLQVQGEFPWSVLAPLLLGVRYGFVRGLISASLLVAAFFALRHSGLASYAQVAPSYIVGVLVCGMLVGEVRDLWERRLLRLQMANEYRQYRLDDFTRAHQILRVSHDRLEQRLAGSDQSLRSSLLGLRDRLRAAPNGGDPLSLLAEPVLTLLGQYGSLRVAGLYRVEQGASAAPQLSLLASIGTMGPLDSQDLLVRMCLEREELVSVREELLDSGAQASVSSLQACVPLVDTQGQVLAILAVRQMPFFAFQERTLSLLALLAGHIADLLHPDPQVLQLQSADAQHFTRQLKRSLVDVERHGLSGCLYAFELTQPNDELARLFERSQRGLDLHLSLANARGHELLLVLLPLTSAEGAQGYLARLGKLVHEHFGMSVELAGLGVKVLPYDLESARQRDGLRNYLYNECGLNDQQVAV”, the protein production result is reported as “failed”.

As for “MNSSESKSLVVIGGGGHASVLVDILRSQQREILAIVSPENISQRRIFSGITHLKNDDDILRFSPDSVNLVNGVGMLPKSGLKRKLNEYFLSLGYTFETVISDSAQVSSFAEIEQGAQVFSGAIIQAGVVIDAHTIINSGVIIEHDCHIGEYNHIAPKATLCGQVTTHSNVYVGANATVIQNITLEQGSIVGAGAIVTKNISSEQICYPSRSVLK”, the protein production entry is recorded as “failed”.

On to “MNSSPPPANSANGDTTNNGENGQDLNLNFLDKIRLSAKRDAKEDEGEELPTELNTINSAGGFLVVSPDKLSVKYTNTNLHGHDVGVVQANKPAPIKCLTYYFEIFVKDSGIKGQIAIGFTKESFKMRRQPGWEVNSCGYHGDDGYLYRGQGKGEPFGPKFTKDDAVGGGINYASQEFFFTKNGTIVGKIPKDIRGHLFPTVAVHSQNEEVLVNFGKKKFAFDIKGYEASERNKQQLAIEKISIPPNIGYGLVKTYLLHYGYEETLDAFNLATKNTVPPIHIDQENAIDEDDSSYALKQRKNLRQLVRNGEIDTALAELQKLYPQIVQDDKSVVCFLLHCQKFIELVGKLEEGVNYGRLELAKFVGLTGFQDIVEDCFALLAYEKPEESSVWYFLEDSQRELVADAVNAAILSTNPNKKDVQRSCHLQSHLEKLLRQLTVCCLERRSLNGDQGETFRLRHVLNNNR”, for which the protein production result is “failed”.

For the sequence “MNSTEITQNTDVPSHFRSIKTFVLRTGRMTEGQKRNYEAFYQKWCIPYTESPIDFQTLFQNDNPVIIEIGFGMGTATAQIAEDNPDKNYLGIEVFKAGVGKLLGEIEEKKLNNLRIIEHDAIEVLENMINNESVDGFHIFFPDPWQKKRNHKRRLVRRPRTDLLSKKLKDGGYIYMVTDWENYAEDAFEQLSETPNLKSKYEKFAPSQSWRPTTKFEKKGLKKEHVINELIFEKD”, the protein production result is “failed”.
